Here are results for one molecule from patent publication US20100247430A1 (published 2010).

The assay deals with Dlg1 (endogenous, mouse T cells) (mouse, UniProt Q811D0 1-905, limits assumed). Briefly: co-immunoprecipitation from activated mouse CD4+ T cell extracts, anti-Dlg1 IP, anti-Crtam immunoblot. As to the method:
(A) Naïve CD4⁺ T cells from Crtam^{-/+} and Crtam^{-/-} mice were activated for the indicated times and cell extracts were immunoprecipitated with Abs against Scrib (upper panels) or Dlg1 (lower panels). Immune complexes were then analyzed by immunoblotting against Crtam. Data shown are representative of five independent experiments.
To assess the interaction of Crtam and PDZ-containing proteins, microbead purified CD4⁺ T cells were stimulated with plate-bound […] (10 μg/ml) and anti-CD28 (2 μg/ml) mAbs, whole cell extracts were immunoprecipitated using anti-Scrib antibody (K-21, Santa Cruz) and immune complexes analyzed by immunoblotting with anti-Crtam mAb (6E2, Genentech) or anti-Scrib Ab (H-300, Santa Cruz). The control experiment was performed using anti-Dlg1 Ab (H-60, Santa Cruz) for immunoprecipitation. […] Crtam-Flag was immunoprecipitated using anti-Flag M2-agarose beads (Sigma) and immune complexes were analyzed by immunoblotting with anti-GST (GE Healthcare Bio-Sciences) or anti-Crtam (6E2) mAbs.
To define the mechanism(s) by which Crtam regulates T cell morphology, we analyzed the ability of Scrib and Dlg1 to co-immunoprecipitate with Crtam in resting and activated T cells (FIG. 5A). Crtam was detected in Scrib, but not Dlg1, immunoprecipitates 14 h following TCR activation. […]
On the technique in general: In western blotting, separated proteins are transferred to a membrane and probed.

Chain of Dlg1 (endogenous, mouse T cells) (Q811D0 whole entry): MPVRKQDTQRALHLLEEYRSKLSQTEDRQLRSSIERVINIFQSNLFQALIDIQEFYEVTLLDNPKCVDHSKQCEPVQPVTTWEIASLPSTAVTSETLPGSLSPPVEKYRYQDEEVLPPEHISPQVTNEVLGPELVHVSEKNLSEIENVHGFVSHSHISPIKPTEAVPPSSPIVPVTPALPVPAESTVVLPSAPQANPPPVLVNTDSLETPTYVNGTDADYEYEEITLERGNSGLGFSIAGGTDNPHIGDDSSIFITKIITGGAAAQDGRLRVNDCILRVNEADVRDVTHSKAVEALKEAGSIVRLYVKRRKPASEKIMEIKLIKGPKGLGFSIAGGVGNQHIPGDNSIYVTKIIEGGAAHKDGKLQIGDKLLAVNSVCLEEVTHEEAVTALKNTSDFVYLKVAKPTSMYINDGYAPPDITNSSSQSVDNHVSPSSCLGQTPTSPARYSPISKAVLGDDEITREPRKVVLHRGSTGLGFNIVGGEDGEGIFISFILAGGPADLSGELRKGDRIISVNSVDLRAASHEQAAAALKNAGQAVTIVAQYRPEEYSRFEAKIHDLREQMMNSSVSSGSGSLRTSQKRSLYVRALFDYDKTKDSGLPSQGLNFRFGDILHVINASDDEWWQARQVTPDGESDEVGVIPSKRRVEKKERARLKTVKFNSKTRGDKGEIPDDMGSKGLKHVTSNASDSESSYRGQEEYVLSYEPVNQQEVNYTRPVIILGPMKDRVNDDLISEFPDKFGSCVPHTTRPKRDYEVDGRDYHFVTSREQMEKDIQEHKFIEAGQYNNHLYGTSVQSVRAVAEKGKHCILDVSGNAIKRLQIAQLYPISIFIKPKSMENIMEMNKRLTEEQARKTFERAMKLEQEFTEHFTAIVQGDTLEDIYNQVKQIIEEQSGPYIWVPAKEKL

B1: mouse Crtam (endogenous, on activated mouse T cells) (receptor)
chain: AFLKMETVTVEEGQTLTLTCVTSQTKNVSLQWLAPSGFTIFLNQHPALKSSKYQLLHHSATQLSISVSNVTLREEGVYTCLHYGSSVKTKQVRVTVLVTPFQPTVEALVLRRQNGEKSVVLKCSTERSKPPPQITWLLGEGLEIYGELHHEFEADGKICNTSSTLIARAYGKNSTVHCIIQHEGLHGRKLVAPFQFEDLVADQETTSDAPEQSSLSSQALQQPTSTVSMMENSSIPETDKEEKEHATQDPGLSTASAQHTGLARRKSGILLLTLVSFLIFILFIIVQLFIMKLRKAHVVWKKESEISEQALESYRSRSNNEETSSQENSSQAPQSKRCMNYITQLYSGAKTKKSAQHWKLGGKHSRVPESIV
notes: Endogenous protein of mouse CD4+ or CD8+ T cells; In the co-immunoprecipitations it came from whole cell extracts; In flow cytometry and the Cadm1(ECD)-Fc assay it was on the cell surface; also called class-I MHC restricted T-cell associated molecule
As for B1, the binding result is recorded as “no binding”.
